The record followed here is patent US20130018176A1, “METHODS OF PRODUCING HYBRIDOMAS AND MONOCLONAL ANTIBODIES AND ANTIBODIES PRODUCED THEREBY” (AMGEN INC., priority 2007, published 2013).

For assay [1], the target named is T1, Ferroportin expressed inducibly in 293 cells (Homo sapiens, UniProt Q9NP59).
T1 construct: expressed in transfected cells; host or cells: 293 cells, tetracycline/doxycycline-inducible
T1 sequence (Q9NP59 1-571): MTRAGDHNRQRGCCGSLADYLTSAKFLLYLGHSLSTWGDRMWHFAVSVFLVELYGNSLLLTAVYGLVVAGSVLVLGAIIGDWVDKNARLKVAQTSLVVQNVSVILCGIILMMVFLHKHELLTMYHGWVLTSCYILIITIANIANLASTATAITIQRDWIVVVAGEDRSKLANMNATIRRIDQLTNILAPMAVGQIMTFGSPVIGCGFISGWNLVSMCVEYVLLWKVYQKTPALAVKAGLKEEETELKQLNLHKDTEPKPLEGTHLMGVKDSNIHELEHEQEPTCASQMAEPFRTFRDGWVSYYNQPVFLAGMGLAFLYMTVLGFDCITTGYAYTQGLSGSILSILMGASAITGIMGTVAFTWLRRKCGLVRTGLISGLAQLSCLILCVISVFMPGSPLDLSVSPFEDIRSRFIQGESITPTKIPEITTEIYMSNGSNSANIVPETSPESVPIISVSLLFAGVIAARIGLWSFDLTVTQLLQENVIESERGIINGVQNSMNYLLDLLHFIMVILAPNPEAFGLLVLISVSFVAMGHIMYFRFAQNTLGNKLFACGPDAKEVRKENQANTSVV
Nature of the assay: In vitro hepcidin activity ferritin assay. The assay is classed as cell-based. As to conditions: 293 cells with tetracycline-inducible ferroportin; 1 μg/ml hepcidin; 17-20 hours. The method, then: Human hepcidin purified or produced according to Examples 1, 2, 3 and 4 was assayed for iron-regulating bioactivity in an in vitro cellular assay. […] The action of ferroportin can be reduced in a dose-dependent manner by hepcidin treatment.
293 cells expressing a tetracycline-inducible ferroportin gene were plated at 50,000 cells per well (70-80% density) in a 96 well BioCoat poly-D Lysine-coated plate in DMEM supplemented with 5% fetal bovine serum and a penicillin/streptomycin/glutamine supplement (Gibco BRL). After an overnight incubation at 37° C. with 5% CO2, the medium was replaced with assay medium (as above, but supplemented with 2.5 μg/ml doxycycline for […], 2.5 μg/ml iron citrate for iron supplemented wells and 1 μg/ml hepcidin for hepcidin treatment wells). The plate was further incubated for 17-20 hours as above before washing the wells in cold PBS and lysing in 120 ul of 1% Triton lysis buffer on ice for 15 minutes. 100 μl of lysates were used for ferritin analysis (Olympus AU400 clinical chemistry analyzer) and 10 μl for BCA protein assay (Pierce). Ferritin results were normalized for protein content.

The target in a further assay is T2, human hepcidin (Homo sapiens, UniProt P81172).
T2 construct: The pro-region of the protein was enzymatically cleaved by incubation with Kex protease; made in house; host or cells: E. coli
T2 sequence (P81172 60-84 limits assumed): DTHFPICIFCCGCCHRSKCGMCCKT
The experiment in a line: Neutralization of injected human hepcidin in mice (hypoferremic response). The assay is classed as in vivo. As to conditions: 25 μg i.p. with isotype control antibody; female C57BL/6 mice; two hours. How it is done: Activity of anti-human hepcidin antibodies was evaluated in vivo in mice that were administered human hepcidin in an amount sufficient to generate a hypoferremic response. On day 0, female C57BL/6 mice were injected subcutaneously with a murine monoclonal antibody (Ab2.7) directed against human hepcidin. Control mice received murine IgG1 as an isotypic control. At day 3, the mice received a single intraperitoneal injection of 25 μg E. coli-derived recombinant human Hepcidin (rhHepc). Serum iron levels were analyzed two hours later. […] Statistics represent ANOVA with a Dunnett's post-hoc test comparing all groups against the saline control.

Assay [2] deals with T3, E. coli-derived human hepcidin (Homo sapiens, UniProt P81172).
T3 construct: The pro-region of the protein was enzymatically cleaved by incubation with Kex protease; made in house; host or cells: E. coli
T3 sequence (P81172 60-84 limits assumed): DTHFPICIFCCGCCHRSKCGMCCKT
The experiment in a line: Biacore concurrent binding to hepcidin captured on antibody 1S1 surface (sandwich pairing). As to conditions: 20 nM hepcidin on 1S1 surface, then 50 nM antibody. The method, then:
Using Biacore analysis, a surface coated with antibody 1S1 was tested for the concurrent binding of hepcidin and another antibody (FIG. 28). Immobilization of anti-Hepc antibody 1S1 to the sensor chip surface was performed according to manufacturer's instructions using a continuous flow of 0.005% P-20/PBS buffer. Briefly, carboxyl groups on the sensor chip surfaces were activated by injecting 60 μL of a mixture containing 0.2 M N-ethyl-N′-(dimethylaminopropyl)carbodiimide (EDC) and 0.05 M N-hydroxysuccinimide (NHS). This was followed by injecting 1S1 diluted in 10 mM acetate, pH 4.0 at concentrations between 20 μg/mL. Excess reactive groups on the surfaces were deactivated by injecting 60 μL of 1 M ethanolamine. Final immobilized levels were 5,000-6,000 resonance units (RU) for the Ab 1S1 surface. A blank, mock-coupled reference surface was also prepared on the sensor chip. 20 nM E. coli-derived human hepcidin was injected over and bound to the 1S1 antibody surface. Then 50 nM antibody 2.7, 23F11, 26F11, and 1S1 were injected over the hepcidin/1S1 surface. After the antibody injection, the surfaces were regenerated by injecting 30 μL 10 mM HCl pH 2.0.
(In SPR one partner is held on a chip, and binding of the other changes the refractive index at the surface.)

As for “hydrogen-DTHFPICIFCCGCCHRSKCGMCCKT-free acid [synthetic hepcidin]”, in assay [1], the “iron retention (ferritin)” value is recorded as “increase in iron retention”.

As for “recombinant hepcidin: human hepcidin produced recombinantly according to Examples 2 and 3 (CHO- or E. coli-derived)”, in assay [1], the “iron retention (ferritin)” value is “increase in iron retention”.

“rhHepc: E. coli-derived recombinant human Hepcidin”: the “serum iron levels after hepcidin injection” value with human hepcidin is on record as “hypoferremia”.

As to “urinary hepcidin: Human hepcidin isolated from urine of sepsis patients”, in assay [1], the “iron retention (ferritin)” value is reported as “increase in iron retention”.

B1: Antibody 26F11: human antibody from Xenomouse, SEQ ID NOs: 187-196 (antibody)
heavy: QVQLVESGGGVVQPGRSLRLSCAASGFTFSNYGMHWVRQAPGKGLEWVAVIWYVGSNKYYADSVKGRFTISRDNSKNTLYLQMNSLRAEDTAVYYCARAQEGMAPDAFDIWGQGTMVTVSSASTKGPSVFPLAPCSRSTSESTAALGCLVKDYFPEPVTVSWNSGALTSGVHTFPAVLQSSGLYSLSSVVTVPSSNFGTQTYTCNVDHKPSNTKVDKTVERKCCVECPPCPAPPVAGPSVFLFPPKPKDTLMISRTPEVTCVVVDVSHEDPEVQFNWYVDGVEVHNAKTKPREEQFNSTFRVVSVLTVVHQDWLNGKEYKCKVSNKGLPAPIEKTISKTKGQPREPQVYTLPPSREEMTKNQVSLTCLVKGFYPSDIAVEWESNGQPENNYKTTPPMLDSDGSFFLYSKLTVDKSRWQQGNVFSCSVMHEALHNHYTQKSLSLSPGK
light: SYELTQPPSVSVSPGQTASITCSGDKMGERYACWYQQKPGQSPILVIYQDTKRPSGIPERFSGSNSGNTATLTISGTQAMDEADYYCQAWYSSTNVVFGGGTKLTVLGQPKAAPSVTLFPPSSEELQANKATLVCLISDFYPGAVTVAWKADSSPVKAGVETTTPSKQSNNKYAASSYLSLTPEQWKSHRSYSCQVTHEGSTVEKTVAPTECS
Take B1: in assay [2], the “ability to bind hepcidin concurrently with 1S1 (sandwich pair)” value is “markedly lower ability to bind to hepcidin concurrently with 1S1”.
